Experimental findings from patent publication US20220227882A1 (TRUSTEES OF TUFTS COLLEGE, published 2022) are described below.

The chains are these.
B1: ADP13 (antibody, IgG1, V domains shown)
VH: EVQLQQSGPEMVKPGTSVKISCKASGYTFTDYYINWVKQSHGKSLEWIGDISPNIGGATYNPKFKGKAILTVDKSARTAYMELRSLTSEDSAVYCCTRGGSSYPYFYAMDYWGQGTSVTVSS
VL: DIVMSQSPSSLAVSVGEKVTMSCKSSQSLLYSSNQKKYLAWYQQKPGQSPKLLIYWASTRESGVPDRFTGSGSGTDFTLTISSVKAEDLAVYYCQQFYSYPYTFGGGTKLEINR
notes: also called mADP13; mouse ADP13
B2: ADP3 (antibody, IgG1, V domains shown)
VH: EVKLEESGGGLVQPGGSMKLSCAASGFTFSDAWMDWVRQSPEKGLEWVAEIRGKVNNLATYYVESVKGRFTISRDDSKSSVYLQMNSLRAEDTGIYYCLGRYDATYAMDYWGQGTSVTVSS
VL: DVVMTQTPLSLPVSLGDQASISCRSSQSLVHSDGNTYLHWYLQKPGQSPKLLIYKLSNRFSGVPDRFSGSGSGTDFTLKISRVEAEDLGVYFCSQSTHVPWTFGGGTKLEIK
B3: ADP2 (antibody, V domains shown)
VH: EVKLVESGGGLVQPGGSLSLSCAASGFSFPDYYMSWVRQPPGKALEWLGFIRDSANGYTTEYIASVKGRFTFSRDNSQSILYLQMNALRAEDSATYYCARYSRYYGMDYWGQGTSVTVSS
VL: SIVMTQTPKILLVSAGDRVTITCKASQTVNYDVAWYQQKPGQSPKPVIYFASNRYTGVPDRFTGSGFGTDFTFTISTVQAEDLAVYFCQQDYSAPWTFGGGTKLEIK
notes: also called mADP2; mouse ADP2

One assay has as its target T1, Full-length human ADAM8 on cells (HEK293-ADAM8 stable or transfected cells); also endogenous ADAM8 of breast … (human, UniProt P78325 17-824).
T1 sequence: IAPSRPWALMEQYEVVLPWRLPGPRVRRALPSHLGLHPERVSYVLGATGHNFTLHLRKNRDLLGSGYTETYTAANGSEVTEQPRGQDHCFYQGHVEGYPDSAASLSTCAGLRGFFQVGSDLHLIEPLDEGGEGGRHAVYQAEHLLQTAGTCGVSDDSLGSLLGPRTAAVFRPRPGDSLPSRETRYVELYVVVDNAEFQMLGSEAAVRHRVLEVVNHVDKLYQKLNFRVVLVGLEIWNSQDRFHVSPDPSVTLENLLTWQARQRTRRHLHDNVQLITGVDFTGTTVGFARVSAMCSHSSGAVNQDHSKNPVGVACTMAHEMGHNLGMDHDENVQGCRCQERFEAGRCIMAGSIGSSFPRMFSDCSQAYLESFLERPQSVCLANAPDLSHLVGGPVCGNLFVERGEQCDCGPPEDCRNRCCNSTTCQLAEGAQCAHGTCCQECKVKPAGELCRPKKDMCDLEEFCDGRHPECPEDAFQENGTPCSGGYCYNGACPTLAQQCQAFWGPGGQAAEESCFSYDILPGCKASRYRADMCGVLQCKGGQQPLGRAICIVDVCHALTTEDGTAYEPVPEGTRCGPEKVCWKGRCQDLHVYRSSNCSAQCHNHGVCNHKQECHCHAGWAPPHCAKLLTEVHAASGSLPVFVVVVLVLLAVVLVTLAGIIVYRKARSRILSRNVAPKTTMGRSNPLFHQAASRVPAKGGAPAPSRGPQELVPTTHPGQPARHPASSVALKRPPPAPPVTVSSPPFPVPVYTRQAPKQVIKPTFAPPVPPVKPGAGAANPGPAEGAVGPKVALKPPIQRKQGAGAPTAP
Briefly: cell-based or functional assay.
Take B1: the “% inhibition of CD23 cleavage (MP activity), HEK293 cells co-expressing CD23 and ADAM8, antibody 20 µg/ml” value (from here on “% inhibition of CD23 cleavage”) worked out at 79.1 % inhibition; the “% inhibition of transendothelial migration of MDA-MB-231 cells through HUVEC, antibody 20 µg/ml” value is 54.5 % inhibition.

B2: the “% inhibition of CD23 cleavage” value came to 79.9 % inhibition; the “% inhibition of transendothelial migration of MDA-MB-231 cells through HUVEC, antibody 20 µg/ml” value stood at 44.5 % inhibition.

As to B3, the “% inhibition of CD23 cleavage” value stood at 62.6 % inhibition; the “% inhibition of transendothelial migration of MDA-MB-231 cells through HUVEC, antibody 20 µg/ml” value turned out to be 37.6 % inhibition.

In the next assay the target is T2, Recombinant human ADAM8 (rHuADAM8) ectodomain protein (aa 17-497), ACRO Biosystems AD8-H5223 (human, UniProt P78325 17-497).
T2 construct: Bought protein made in HEK293 cells; The protein clips off its own prodomain (aa 17-191); also called rhADAM8; immunogen
T2 sequence: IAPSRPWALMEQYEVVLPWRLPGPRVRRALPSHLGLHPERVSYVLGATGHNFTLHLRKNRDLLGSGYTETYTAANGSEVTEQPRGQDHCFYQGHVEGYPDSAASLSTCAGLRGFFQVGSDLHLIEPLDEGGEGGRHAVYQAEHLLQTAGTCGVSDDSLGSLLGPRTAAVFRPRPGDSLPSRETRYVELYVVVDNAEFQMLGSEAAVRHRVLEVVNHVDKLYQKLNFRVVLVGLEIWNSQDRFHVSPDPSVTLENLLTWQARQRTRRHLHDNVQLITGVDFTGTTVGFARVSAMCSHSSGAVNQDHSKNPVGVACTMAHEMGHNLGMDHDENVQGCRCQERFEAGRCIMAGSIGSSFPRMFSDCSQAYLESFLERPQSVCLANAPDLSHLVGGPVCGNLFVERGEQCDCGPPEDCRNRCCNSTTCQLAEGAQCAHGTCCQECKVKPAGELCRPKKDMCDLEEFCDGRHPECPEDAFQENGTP
In words: ELISA, coated recombinant ADAM8. (In an ELISA, binding on a coated surface is turned into a signal by an enzyme label.)
As for B1, the “OD 450nm” value was 2.64 OD450nm.

With B2, the “OD 450nm” value is 2.31 OD450nm.

As for B3, the “OD 450nm” value was 2.76 OD450nm.

The next assay has as its target T1, Full-length human ADAM8 on cells …. Briefly: FACS, HEK293-ADAM8 cells, antibody 1 µg/ml. On the technique in general: In flow cytometry, cells or beads pass a laser one at a time.
Take B1: the MFI was found to be 21.1 MFI.

For B2, the MFI stood at 96.5 MFI.

In turn, B3 yielded an MFI of 156 MFI.

The next assay shares this target. In words: FACS, HEK293-ADAM8 cells, antibody 10 µg/ml.
With B1, the MFI stood at 62.2 MFI.

B2: the MFI is 86.9 MFI.

For B3, the MFI is 158 MFI.

The target is the same in another assay. In words: FACS, HEK293-ADAM8 cells, antibody 0.1 µg/ml.
With B1, the MFI was determined as 7.1 MFI.

B2: the MFI was found to be 51.8 MFI.

B3 showed an MFI of 58.4 MFI.

The target in a further assay is T2, Recombinant human ADAM8 (rHuADAM8) …. In words: Biacore SPR, ADP captured by anti-mouse Fc, rHuADAM8 as analyte. How it is done:
For Biacore assays, each ADP was used as the ligand in a multiple cycle kinetics method performed on a Biacore™ T200 surface plasmon resonance system (GE Healthcare Life Sciences) machine. ADP proteins were captured using anti-mouse Fc IgG attached to a dextran matrix, and rHuADAM8 (Acro Biosystems, AD8-H5223) added as the analyte at concentrations ranging from 3.75 nM to 200 nM. HBS-EP+ (10 mM HEPES, 0.15 M NaCl, 3 mM EDTA, 0.05% Surfactant P20) running buffer was passed at a flow rate of 30 μl/min and antigen injected at 30 μl/min. The association and dissociation phases were carried out for 180 s and 600 s, respectively. Surface regeneration was performed for 30 s at 30 μl/min of Glycine pH 1.5. Values for association rate constant (kₐ), dissociation rate constant (kd) and equilibrium dissociation constant (KD) were calculated through the Biacore™ T200 Software.
(Surface plasmon resonance follows binding to a sensor surface in real time, without labels.)
In the case of B1, the koff amounted to 4.6e-05 s⁻¹ and the kon stood at 35400 M⁻¹ s⁻¹.

As to B2, the koff was found to be 0.000634 s⁻¹ and the kon was found to be 34700 M⁻¹ s⁻¹.

For B3, the koff came out at 0.000299 s⁻¹ and the kon came out at 89500 M⁻¹ s⁻¹.

The term koff denotes the first-order rate constant of dissociation. The kon is the second-order rate constant of association.
